Data reported in patent US10851401B2, “Broth microdilution method for evaluating and determining minimal inhibitory concentration of antibacterial polypeptides” (priority 2016, dated 2020).

Legend:
[1] = tested on: 223 contemporary clinical MSSA and MRSA strains; experiment: First modified (stopgap) BMD method: polypropylene plates, MHBII with 1 mM DTT; assay type: cell-based, Staphylococcus aureus; settings: MHBII supplemented with 1 mM DTT
Experimental: Two modified BMD methods were initially developed to test PlySs2/CF-301. In the first method, the major modifications were that polypropylene plates were used and MHBII was supplemented with 1 mM DTT. DTT (DL-Dithiothreitol) is a common molecular biology reagent used to keep enzymes in a reduced state. […] This procedure was a stop gap because of the use of polypropylene, a remaining disconnect from human blood MIC values, and problems with frozen panels.

[2] = tested on: S. aureus strains; experiment: Standard BMD susceptibility testing, broth versus human blood/serum/plasma; assay type: cell-based
Source text: The supplementation with DTT serves to stabilize lysin polypeptide and enable the use of frozen micro broth dilution panels for MIC determination. DTT is a common reducing agent used to prevent the oxidation and inactivation of enzymes during storage or in the context of in vitro assays.

[3] = Charge (pI); assay type: physicochemical
[4] = oxidation and inactivation of active-site cysteine thiol in MHB
[5] = clinical grade, recombinantly produced in E. coli; cited from earlier work
[6] = MIC assays under different conditions (FIG. 7)
[7] = tested on: MRSA strain ATCC 29213; experiment: MIC assays under different conditions (FIG. 7); settings: MHBII alone
[8] = tested on: S. aureus ATCC 700699; experiment: BMD MIC assay of a single strain in CA-MHB, human blood matrices and supplemented broth
[9] = tested on: 30 S. aureus strains; experiment: Broth microdilution (BMD) MIC, identification of new testing conditions, panel of 30 strains
[10] = tested on: 25 S. aureus strains; experiment: BMD MIC, validation of the horse serum/DTT method with varied sources, conditions and storage
[11] = 100% Human Serum, Fresh dilutions
[12] = CAMHB, 0.5 mM DTT, Fresh dilutions
[13] = CAMHB, 25% horse serum, 0.5 mM DTT, Fresh dilutions
[14] = CAMHB, 25% horse serum, 0.5 mM DTT, Thawed
[15] = CAMHB, 25% horse serum, Fresh dilutions
[16] = Bacterial inoculum 5 × 10^4 CFU/ml
[17] = Bacterial inoculum 5 × 10^5 CFU/ml (first line, r9)
[18] = Bacterial inoculum 5 × 10^5 CFU/ml (second line, r10)
[19] = Bacterial inoculum 5 × 10^6 CFU/ml
[20] = CAMHB source BBL BD (Powder), Freeze/Thaw no
[21] = CAMHB source BBL BD (Powder), Freeze/Thaw yes
[22] = CAMHB source BD (Liquid), Freeze/Thaw no
[23] = CAMHB source BD (Liquid), Freeze/Thaw yes
[24] = CAMHB source Sigma-Aldrich (Powder), Freeze/Thaw no
[25] = CAMHB source Sigma-Aldrich (Powder), Freeze/Thaw yes
[26] = CAMHB source Teknova (Liquid), Freeze/Thaw no
[27] = CAMHB source Teknova (Liquid), Freeze/Thaw yes
[28] = DTT source G-Biosciences (powder), Freeze/Thaw no
[29] = DTT source G-Biosciences (powder), Freeze/Thaw yes
[30] = DTT source Sigma (liquid), Freeze/Thaw no
[31] = DTT source Sigma (liquid), Freeze/Thaw yes
[32] = DTT source Sigma (powder), Freeze/Thaw no
[33] = DTT source Sigma (powder), Freeze/Thaw yes
[34] = Incubation condition: 5% CO^2 (37° C.)
[35] = Incubation condition: Ambient air (30° C.)
[36] = Incubation condition: Ambient air (37° C.)
[37] = horse serum/DTT method, reference value for the modifications tested
[38] = panels stored at −80° C. for 1 day
[39] = panels stored at −80° C. for 3 days
[40] = panels stored at −80° C. for 7 days
[41] = panels stored at −80° C. for 14 days
[42] = panels stored at −80° C. for 60 days
[43] = panels stored at −80° C. for 90 days
[44] = panels stored at −80° C. for 120 days
[45] = panels stored at −80° C. for 180 days
[46] = panels stored at −80° C. for 365 days

B1: CF-301: bacteriophage lysin polypeptide derived from a Streptococcus suis prophage, amino acid sequence of FIG. 1 / SEQ ID NO: 1; 26 kDa bacteriolytic enzyme (protein, listed as Streptococcus suis)
chain: MTTVNEALNNVRAQVGSGVSVGNGECYALASWYERMISPDATVGLGAGVGWVSGAIGDTISAKNIGSSYNWQANGWTVSTSGPFKAGQIVTLGATPGNPYGHVVIVEAVDGDRLTILEQNYGGKRYPVRNYYSAASYRQQVVHYITPPGTVAQSAPNLAGSRSYRETGTMTVTVDALNVRRAPNTSGEIVAVYKRGESFDYDTVIIDVNGYVWVSYIGGSGKRNYVATGATKDGKRFGNAWGTFK
- MIC90 [1]: 8 µg/mL
- MIC range [1]: 1 to 16 µg/mL
- MIC90 ([2]; CA-MHB): 64 µg/mL
- S. aureus strains showing trailing (or Eagle) effect ([2]; broth microdilution (BMD)): ~70%
- MIC90 ([2]; human blood/serum/plasma): 1 µg/mL
- pI [3]: 9.2
- half-life in MHB [4]: ~5 h
- pH range of activity [5]: 6-9.7 pH
- temperature range of activity [5]: 16-55 °C
- MIC ([6]; 100% human serum): 1 µg/mL
- MIC ([6]; MHBII alone): 16 µg/mL
- trailing effect [7]: slight trailing effect
- MIC ([8]; human blood): 1 µg/mL
- MIC ([8]; standard conditions, CA-MHB / MHBII): 64 µg/mL
- Range [9, 11]: 0.125-2
- Trailing [9, 11]: none
- MIC50 [9, 12]: 128
- MIC90 [9, 12]: 128
- Range [9, 12]: 8-256
- Trailing [9, 12]: strong
- MIC50 ([9]; CAMHB, 0.5 mM DTT, Thawed): 128
- MIC90 ([9]; CAMHB, 0.5 mM DTT, Thawed): 256
- Trailing ([9]; CAMHB, 0.5 mM DTT, Thawed): strong
- MIC50 [9, 13]: 0.5
- MIC90 [9, 13]: 1
- Range [9, 13]: 0.25-2
- Trailing [9, 13]: none
- MIC50 [9, 14]: 0.5
- MIC90 [9, 14]: 1
- Range [9, 14]: 0.25-2
- Trailing [9, 14]: none
- Range [9, 15]: 0.5-4
- Trailing [9, 15]: none
- Range ([9]; CAMHB, 25% horse serum, Thawed): 0.5-8
- Trailing ([9]; CAMHB, 25% horse serum, Thawed): none
- Range ([9]; CAMHB, Fresh dilutions): 2-128
- Trailing ([9]; CAMHB, Fresh dilutions): strong
- Trailing ([9]; CAMHB, Thawed (frozen-thawed dilution panels)): strong
- MIC50 [10, 16]: 0.5 µg/mL
- MIC90 [10, 16]: 1 µg/mL
- Range [10, 16]: 0.25 to 1 µg/mL
- MIC50 [10, 17]: 0.5 µg/mL
- MIC90 [10, 17]: 1 µg/mL
- Range [10, 17]: 0.25 to 2 µg/mL
- MIC50 [10, 18]: 0.5 µg/mL
- MIC90 [10, 18]: 1 µg/mL
- Range [10, 18]: 0.25 to 2 µg/mL
- MIC50 [10, 19]: 0.5 µg/mL
- MIC90 [10, 19]: 1 µg/mL
- Range [10, 19]: 0.25 to 1 µg/mL
- MIC50 [10, 20]: 0.5 µg/mL
- MIC90 [10, 20]: 1 µg/mL
- Range [10, 20]: 0.25 to 2 µg/mL
- MIC50 [10, 21]: 0.5 µg/mL
- MIC90 [10, 21]: 1 µg/mL
- Range [10, 21]: 0.25 to 2 µg/mL
- MIC50 [10, 22]: 0.5 µg/mL
- MIC90 [10, 22]: 1 µg/mL
- Range [10, 22]: 0.25 to 1 µg/mL
- MIC50 [10, 23]: 0.5 µg/mL
- MIC90 [10, 23]: 1 µg/mL
- Range [10, 23]: 0.25 to 1 µg/mL
- MIC50 [10, 24]: 1 µg/mL
- MIC90 [10, 24]: 2 µg/mL
- Range [10, 24]: 0.5 to 2 µg/mL
- MIC50 [10, 25]: 1 µg/mL
- MIC90 [10, 25]: 2 µg/mL
- Range [10, 25]: 0.5 to 2 µg/mL
- MIC50 [10, 26]: 0.5 µg/mL
- MIC90 [10, 26]: 1 µg/mL
- Range [10, 26]: 0.25 to 1 µg/mL
- MIC50 [10, 27]: 0.5 µg/mL
- MIC90 [10, 27]: 1 µg/mL
- Range [10, 27]: 0.25 to 1 µg/mL
- MIC [10, 28]: 1 µg/mL
- MIC50 [10, 28]: 0.5 µg/mL
- Range [10, 28]: 0.25 to 2 µg/mL
- MIC [10, 29]: 1 µg/mL
- MIC50 [10, 29]: 0.5 µg/mL
- Range [10, 29]: 0.25 to 2 µg/mL
- MIC [10, 30]: 1 µg/mL
- MIC50 [10, 30]: 0.5 µg/mL
- Range [10, 30]: 0.25 to 2 µg/mL
- MIC [10, 31]: 1 µg/mL
- MIC50 [10, 31]: 0.5 µg/mL
- Range [10, 31]: 0.25 to 2 µg/mL
- MIC [10, 32]: 1 µg/mL
- MIC50 [10, 32]: 0.5 µg/mL
- Range [10, 32]: 0.25 to 2 µg/mL
- MIC [10, 33]: 1 µg/mL
- MIC50 [10, 33]: 0.5 µg/mL
- Range [10, 33]: 0.25 to 2 µg/mL
- MIC50 ([10]; Final pH: Adjusted to pH 7.0): 0.5 µg/mL
- MIC90 ([10]; Final pH: Adjusted to pH 7.0): 1 µg/mL
- Range ([10]; Final pH: Adjusted to pH 7.0): 0.25 to 2 µg/mL
- MIC50 ([10]; Final pH: Adjusted to pH 8.0): 1 µg/mL
- MIC90 ([10]; Final pH: Adjusted to pH 8.0): 1 µg/mL
- Range ([10]; Final pH: Adjusted to pH 8.0): 0.25 to 2 µg/mL
- MIC50 ([10]; Final pH: Unadjusted (pH 7.4)): 0.5 µg/mL
- MIC90 ([10]; Final pH: Unadjusted (pH 7.4)): 1 µg/mL
- Range ([10]; Final pH: Unadjusted (pH 7.4)): 0.25 to 2 µg/mL
- MIC50 [10, 34]: 0.5 µg/mL
- MIC90 [10, 34]: 1 µg/mL
- Range [10, 34]: 0.25 to 2 µg/mL
- MIC50 [10, 35]: 0.5 µg/mL
- MIC90 [10, 35]: 1 µg/mL
- Range [10, 35]: 0.25 to 1 µg/mL
- MIC50 [10, 36]: 0.5 µg/mL
- MIC90 [10, 36]: 1 µg/mL
- Range [10, 36]: 0.25 to 2 µg/mL
- effect of prolonged incubation of panels at −80° C. on MIC ([10]; assayed up to 365 days): no significant effect
- MIC50 [10, 37]: 0.5 µg/mL
- MIC90 [10, 37]: 1 µg/mL
- MIC range [10, 37]: 0.25 to 2 µg/mL
- MIC^50 [10, 38]: 0.5
- MIC^90 [10, 38]: 0.5
- Range [10, 38]: 0.25-1
- MIC^50 [10, 39]: 0.5
- MIC^90 [10, 39]: 1
- Range [10, 39]: 0.25-2
- MIC^50 [10, 40]: 0.5
- MIC^90 [10, 40]: 0.5
- Range [10, 40]: 0.25-1
- MIC^50 [10, 41]: 0.5
- MIC^90 [10, 41]: 1
- Range [10, 41]: 0.25-2
- MIC^50 [10, 42]: 0.5
- MIC^90 [10, 42]: 0.5
- Range [10, 42]: 0.25-2
- MIC^50 [10, 43]: 0.5
- MIC^90 [10, 43]: 1
- Range [10, 43]: 0.25-2
- MIC^50 [10, 44]: 0.5
- MIC^90 [10, 44]: 1
- Range [10, 44]: 0.25-2
- MIC^50 [10, 45]: 0.5
- MIC^90 [10, 45]: 0.5
- Range [10, 45]: 0.25-1
- MIC^50 [10, 46]: 0.5
- MIC^90 [10, 46]: 0.5
- Range [10, 46]: 0.25-2
